Data as given in patent publication US20240272170A1 (QUANTUM SI, published 2024).
No end group written: not given here. *: point of attachment. FITC = O=C1OC2(c3ccc(O)cc3Oc3cc(O)ccc32)c2ccc(NC(=S)*)cc21

What was measured:
[1] = target: T1, AA Peptide (fluorescence polarization), AAKLDEESILKQ{LYS(FITC)}; test: fluorescence polarization, FITC peptide titrated with protein
T1 peptide: AAKLDEESILKQK(FITC)

[2] = target: VA Peptide (fluorescence polarization) (FITC on the C-terminal lysine); test: as above
[3] = target: T2, LA Peptide (fluorescence polarization); test: as above
T2 peptide: LAKLDEESILKQK(FITC)

[4] = target: T3, MA Peptide (fluorescence polarization); test: as above
T3 peptide: MAKLDEESILKQK(FITC)

[5] = target: T4, IA peptide (Octet assay of PS557 variants); test: Octet (BLI), peptide on sensor, response after 200 s association
T4 construct: Peptide coated on the Octet sensor
Text: (§1) In the high-throughput assay, Octet sensors are coated with the peptide of interest and dipped in buffer containing the purified protein. An approximation of relative binding can be obtained by comparing the response after 200 seconds for each protein. Each protein has approximately the same molecular mass and is used at the same concentration, so ranking the proteins by response level in this assay gives an approximation of which proteins have improved binding. Studying the on and off-rate can also give insight into the mechanism of binding.

[6] = target: T5, MA peptide (Octet assay of PS557 variants); test: as above
T5 construct: Peptide coated on the Octet sensor
Text: as §1

[7] = target: T6, FA peptide (Octet assay of PS557 variants); test: as above
T6 construct: Peptide coated on the Octet sensor
Text: as §1

[8] = target: T7, YA peptide (Octet assay of PS557 variants); test: as above
T7 construct: Peptide coated on the Octet sensor
Text: as §1

[9] = target: T8, WA peptide (Octet assay of PS557 variants); test: as above
T8 construct: Peptide coated on the Octet sensor
Text: as §1

[10] = target: T9, QP1165 after cleavage to N-terminal alanine (AFLKQRVWK); test: on-chip dynamic sequencing of QP1165, PS1875 run, trace Aperture=430641
T9 peptide: AFLKQRVWK

[11] = target: T9, QP1165 after cleavage to N-terminal …; test: on-chip dynamic sequencing of QP1165, 500 nM PS1875 plus five recognizers, 7305 alignments
[12] = target: T9, QP1165 after cleavage to N-terminal …; test: on-chip dynamic sequencing of QP1165, 500 nM PS1875 plus five recognizers, 11565 alignments
Experimental: (§2) The semiconductor chip was placed in the sequencing device and a chip check was performed to test electronic circuit function and to optimize laser coupling alignment. The chip was then removed from the device socket and the chip was washed twice with 50 μL of 70% isopropanol, followed by four washes with 30 μL of wash buffer (50 mM MOPS pH 8.0, 60 mM potassium acetate, 50 mM glucose, 20 mM magnesium acetate, and surfactant mix) through a flow cell attached to the chip. A second chip check was then performed. The laser was then blocked via an integrated software-controlled shutter, peptide complex was added to a final concentration of 1-10 nM and mixed thoroughly, and the chip was incubated for 15 min. The chip was then washed six times with wash buffer, followed by addition of an imaging solution (wash buffer with 5 mM Trolox and an oxygen scavenging system). The laser was unblocked and the occupancy percentage (target 10-30%, Poisson distributed) was recorded by acquiring a photobleaching signal from a fluorophore attached to the peptide complex during 5 min of laser illumination. […] Data was recorded for 15 min. The laser was then blocked briefly and aminopeptidases were added to the sequencing reaction via the flow cell and mixed thoroughly (final concentration 2-8 μM PhTET2 and/or 20-80 μM PhTET3, as indicated according to the experiment). The laser was then unblocked, and data was recorded for 10 hours. For all runs, 30 μL of mineral oil was added to fluid reservoirs at each port of the flow cell to prevent evaporation during the run.

[13] = target: T9, QP1165 after cleavage to N-terminal …; test: on-chip dynamic sequencing of QP1165, 500 nM PS2132 plus five recognizers, 36192 alignments
[14] = target: T9, QP1165 after cleavage to N-terminal …; test: on-chip dynamic sequencing of QP1165, PS2132 run, trace Aperture=1826247
[15] = target: T9, QP1165 after cleavage to N-terminal …; test: on-chip dynamic sequencing of QP1165, 500 nM PS1875 plus five recognizers, 3369 alignments
[16] = target: T9, QP1165 after cleavage to N-terminal …; test: on-chip dynamic sequencing of QP1165, PS2132 run, trace Aperture=376215
[17] = target: T9, QP1165 after cleavage to N-terminal …; test: on-chip dynamic sequencing of QP1165, PS1875 run, trace Aperture=1353995
[18] = target: T9, QP1165 after cleavage to N-terminal …; test: on-chip dynamic sequencing of QP1165, PS1875 run, trace Aperture=1377116
Experimental: as §2

[19] = target: T9, QP1165 after cleavage to N-terminal …; test: on-chip dynamic sequencing of QP1165, PS2123 run, trace Aperture=1168773
[20] = target: T9, QP1165 after cleavage to N-terminal …; test: on-chip dynamic sequencing of QP1165, PS1875 run, trace Aperture=1311609
[21] = target: T9, QP1165 after cleavage to N-terminal …; test: on-chip dynamic sequencing of QP1165, PS2123 run, trace Aperture=501326
[22] = target: T9, QP1165 after cleavage to N-terminal …; test: on-chip dynamic sequencing of QP1165, PS2121 run, trace Aperture=740473
[23] = target: T9, QP1165 after cleavage to N-terminal …; test: on-chip dynamic sequencing of QP1165, 500 nM PS2123 plus five recognizers, 62511 alignments
[24] = target: T9, QP1165 after cleavage to N-terminal …; test: on-chip dynamic sequencing of QP1165, 500 nM PS2121 plus five recognizers, 15527 alignments
[25] = target: T9, QP1165 after cleavage to N-terminal …; test: on-chip dynamic sequencing of QP1165, PS2121 run, trace Aperture=1683362
[26] = target: T10, second R of YRELRLLK (RLLK); test: on-chip single-molecule dynamic sequencing, example traces, time axis 0-600 min
T10 construct: also called parent peptide after cleavage to the second arginine
T10 peptide: RLLK

[27] = target: T11, RA peptide (XAKLDEESILKQK-FITC, X = R); test: fluorescence polarization titration, PS621 0-5000 nM
T11 construct: also called peptide with N-terminal arginine
T11 peptide: RAKLDEESILKQK(FITC)
Experimental: (§3) Binding affinity was measured by polarization using a labeled peptide. The polarization response and total intensity measurements were carried out at 20° C. on a microplate fluorometer with 480 nm excitation and 530 nm emission. […] Multiple analyses were performed at increasing recognizer concentration at a fixed concentration of a target peptide to obtain a titration curve. An equilibrium polarization response at each concentration was plotted and fit to calculate the KD.
(§4) Fluorescence polarization assays were performed with all candidates, and single point binding responses were measured at a fixed concentration of the binders (FIG. 13A). […] We carried out multiple polarization binding titration analysis at increasing concentration of binder protein, and the Kds were determined from the titration curves (FIG. 13B).

[28] = target: T11, RA peptide (XAKLDEESILKQK-FITC, X = R); test: fluorescence polarization titration, 20 C
Experimental: as §3, §4

[29] = target: T12, HA peptide (XAKLDEESILKQK-FITC, X = H); test: fluorescence polarization titration, 20 C
T12 construct: also called peptide with N-terminal histidine
T12 peptide: HAKLDEESILKQK(FITC)
Experimental: as §3, §4

B1: PS852 (designed binder)
chain: MPTAASATESAIEDTPAPARPEVDGRTKPKHQPRYHVVLWDDDDHTYQYVVVMLRSLFGHPPERGYRLAKEMDTQGRVIVLTTTREHAELKRDQIHAFGYDRLLARSKGSMKASIEAEE
notes: Variant of PS557
Kd [1]: 5140 nM
Kd [2]: 142 nM
Kd [3]: 19 nM
Kd [4]: 1140 nM
Octet response [5]: 9.38 nm
Octet response [6]: 5.48 nm
Octet response [7]: 0.102 nm
Octet response [8]: 0.177 nm
Octet response [9]: 0.0292 nm

B2: PS824 (designed binder)
chain: MPTAASATESAFEDTPAPARPEVDGRTKPKRQPRYHVVLWDDDDHTYQYVVVMLRSLFGHPPERGYRLAKEMDTQGRVIVLTTTREHAELKRDQIHAFGYDRLLARSKGSMKASIEAEE
notes: Variant of PS557
Kd [1]: 6770 nM
Kd [2]: 205 nM
Kd [3]: 10 nM
Kd [4]: 648 nM
Octet response [5]: 13.5 nm
Octet response [6]: 9.5 nm
Octet response [7]: 0.673 nm
Octet response [8]: 1.31 nm
Octet response [9]: 0.165 nm

B3: PS1587 (designed binder)
single polypeptide, two PS1165 units in tandem: MGLENSLETLRFSISNLSMQTHAARMRTFMYWPSSVPVQPEQLASAGFYYVGRNDDVKCFCCDGGLRCWESGDDPWVEHAKWFPRCEFLIRMKGQEFVDEIQGRYPHLLEQLLSEAAAKEAAAKEAAAKMGLENSLETLRFSISNLSMQTHAARMRTFMYWPSSVPVQPEQLASAGFYYVGRNDDVKCFCCDGGLRCWESGDDPWVEHAKWFPRCEFLIRMKGQEFVDEIQGRYPHLLEQLLSG
notes: also called PS1587 (AST)
PD of a recognition segment in an example trace [10]: 0.64 s
IPD (interpulse duration) [11]: 15 s
PD (pulse duration) [11]: 0.66 s
IPD (interpulse duration) [12]: 17.2 s
PD (pulse duration) [12]: 0.72 s
IPD (interpulse duration) [13]: 16.1 s
PD (pulse duration) [13]: 0.62 s
PD of a recognition segment in an example trace [14]: 0.64 s
IPD (interpulse duration) [15]: 14.7 s
PD (pulse duration) [15]: 0.76 s
PD of a recognition segment in an example trace [16]: 0.32 s
PD of a recognition segment in an example trace [17]: 0.87 s
PD of a recognition segment in an example trace [18]: 0.75 s
PD of a recognition segment in an example trace [19]: 0.43 s
PD of a recognition segment in an example trace [20]: 1.26 s
PD of a recognition segment in an example trace [21]: 0.39 s
PD of a recognition segment in an example trace [22]: 0.75 s
IPD (interpulse duration) [23]: 17.4 s
PD (pulse duration) [23]: 0.7 s
IPD (interpulse duration) [24]: 16 s
PD (pulse duration) [24]: 0.72 s
PD of a recognition segment in an example trace [25]: 2.53 s

B4: PS621 (other)
chain: MHSKFSHAGRICGAKFKVGEPIYRCKECSFDDTCVLCVNCFNPKDHTGHHVYTTICTEFNNGICDCGDKEAWNHTLFCKAEEG
notes: tag of the assay construct not specified; also called UBR protein from Kluyveromyces marxianus
binding result [26]: binds
Kd [27]: 475 nM
Kd [28]: 475 nM
Kd [29]: 6770 nM
